Assay results from patent US20200277377A1 (WUXI BIOLOGICS SHANGHAI, published 2020).

Experiments:
[1] = molecular target: T1, human CTLA-4 (Example 3 ELISAs, construct not stated) (human, UniProt P16410 36-161); experiment: competition ELISA: coated human CTLA-4, antibody mixed with biotinylated CD80, bound ligand detected with streptavidin-HRP [A) CD80]
T1 sequence (looked up): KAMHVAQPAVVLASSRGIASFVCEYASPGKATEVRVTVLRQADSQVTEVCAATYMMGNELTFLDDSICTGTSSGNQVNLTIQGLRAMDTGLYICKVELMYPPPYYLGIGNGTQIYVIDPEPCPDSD
Description: (§1) Both ELISA and FACS were used as the competition assays. In ELISA based competition assay, human CTLA-4 was coated on the plates, and the antibodies mixed with biotinylated ligands were added into the plate. The bound ligands were detected by HRP conjugated streptavidin.

[2] = molecular target: T2, full length human CTLA-4 on cells (human, UniProt P16410 36-223); experiment: FACS on CTLA-4-expressing cell line
T2 construct: whole, on cells; also called CTLA-4-expressing cell line
T2 sequence (looked up): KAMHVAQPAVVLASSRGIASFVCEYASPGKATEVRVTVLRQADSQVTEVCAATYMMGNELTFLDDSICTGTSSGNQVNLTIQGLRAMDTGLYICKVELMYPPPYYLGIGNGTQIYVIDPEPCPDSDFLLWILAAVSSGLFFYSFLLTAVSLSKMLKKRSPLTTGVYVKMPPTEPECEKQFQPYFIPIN

[3] = molecular target: T3, biotinylated human CTLA-4 (Example 3 FACS competition) (human, UniProt P16410 36-161, limits assumed, biotinylated (sites not given)); experiment: competition FACS: antibody mixed with biotinylated human CTLA-4, added to CD86-expressing cells (panel title W316-CHO-K1.hPro1.L2), bound CTLA-4 detected with streptavidin-PE [B]
T3 sequence (looked up): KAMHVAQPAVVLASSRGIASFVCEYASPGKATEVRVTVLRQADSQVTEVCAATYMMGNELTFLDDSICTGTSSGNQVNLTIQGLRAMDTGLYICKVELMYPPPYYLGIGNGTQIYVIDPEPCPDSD
Description: as §1
(§2) Then the mixtures of antibody and CTLA-4 were added to the cells and incubated for 1 hour at 4° C. The cells were washed two times with 200 μL FACS buffer (DPBS containing 1% BSA). Streptavidin PE 1 to 333 diluted in FACS buffer was added to the cells and incubated at 4° C. for 1 hour.

[4] = molecular target: T4, human CTLA-4.ECD-6×His (human, UniProt P16410 36-161); experiment: SPR, antibody captured on anti-human Fc, CTLA-4.ECD-6×His as analyte, 1:1 fit
T4 construct: extracellular domain; also called WBP316.hCTLA-4.ECD-6×His; hCTLA4-His (WT)
T4 sequence: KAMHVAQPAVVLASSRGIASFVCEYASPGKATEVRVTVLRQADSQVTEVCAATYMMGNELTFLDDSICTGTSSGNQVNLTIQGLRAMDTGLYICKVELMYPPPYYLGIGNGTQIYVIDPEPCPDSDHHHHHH
Description: (§3) Biacore T200, Series S Sensor Chip CMS, Amine Coupling Kit, and 10×HBS-EP were purchased from GE Healthcare. […] In immobilization step, the activation buffer was prepared by mixing 400 mM EDC and 100 mM NHS immediately prior to injection. The CM5 sensor chip was activated for 420 s with the activation buffer. 30 μg/mL of goat anti-human IgG Fcγ antibody in 10 mM NaAc (pH 4.5) was then injected to Fc1-Fc4 channels for 200 s at a flow rate of 5 μL/min. The chip was deactivated by 1 M ethanolamine-HCl (GE). Then the antibodies were captured on the chip. Briefly, 4 μg/mL antibodies in running buffer (HBS-EP+) was injected individually to Fc3 channel for 30 s at a flow rate of 10 μL/min. […] Regeneration buffer (10 mM Glycine pH 1.5) was injected at 10 μL/min for 30 s following every dissociation phase.
(§4) The binding kinetics of these antibodies were measured using SPR. The antibodies were captured on immobilized anti-human Fc and CTLA-4-ECD at different concentration was injected orderly. The sensorgrams for reference channel and buffer channel were subtracted from the test sensorgrams. The data was used for 1:1 binding analysis on human, monkey and mouse CTLA-4.ECD-6×His.

[5] = molecular target: T5, Murine CTLA-4.ECD-6×His (mouse, UniProt P09793 36-161); experiment: as above
T5 construct: extracellular domain; Bought; also called mouse CTLA-4.ECD-6×His; mouse CTLA-4 ECD
Description: as §3, §4

[6] = molecular target: T6, cynomolgus monkey CTLA-4 ECD-6×His (cynomolgus monkey); experiment: as above
T6 construct: extracellular domain; Bought; also called cynomoguls monkey CTLA-4.ECD-6×His
Description: as §3, §4

[7] = molecular target: T4, human CTLA-4.ECD-6×His; experiment: SPR, antibody captured on anti-human Fc, CTLA-4 ECD as analyte, 1:1 fit
Description: The binding kinetics of four antibodies were measured using SPR. The antibodies were captured on immobilized goat anti-human Fc, and then human CTLA-4 ECD at different concentration was injected orderly. The sensorgrams for reference channel and buffer channel were subtracted from the test sensorgrams. The data was used to fit in 1:1 binding analysis.
as §3

[8] = molecular target: T7, murine CTLA-4 (Example 3 ELISA, construct not stated) (mouse, UniProt P09793 36-161, limits assumed); experiment: ELISA; ELISA, murine CTLA-4
T7 construct: also called mouse CTLA-4
Description: (§5) The antibodies were tested on CTLA-4-binding ELISA.
(§6) ELISA was used to test binding of anti-human CTLA-4 antibodies to human, murine and cynomolgus monkey CTLA-4 protein. A 96-well plate was coated with human CTLA-4.ECD-6×His (1.0 μg/mL), cynomoguls monkey CTLA-4.ECD-6×His (0.5 μg/mL) or mouse CTLA-4.ECD-6×His (0.5 μg/mL) at 4° C. for 16-20 hours. After 1 hour blocking with 2% BSA in DBPS, testing antibodies, as well as positive and negative control antibodies were added to the plates and incubated at room temperature for 1 hour. The binding of the antibodies to the plates were detected by HRP-conjugated goat anti-human IgG antibody (1:5000 dilution) with 1 hour incubation. The color was developed by dispensing 100 μL of TMB substrate for 8 mins, and then stopped by 100 μL of 2N HCl.

[9] = molecular target: T1, human CTLA-4 (Example 3 ELISAs, …); experiment: ELISA, antibody titrated on human CTLA-4, OD450
Description: as §5, §6

[10] = molecular target: T8, monkey CTLA-4 (Example 3 ELISA, construct not stated) (cynomolgus monkey, UniProt G7PL88 36-161); experiment: ELISA, antibody titrated on cyno CTLA-4, OD450
T8 construct: also called cyno CTLA-4
T8 sequence: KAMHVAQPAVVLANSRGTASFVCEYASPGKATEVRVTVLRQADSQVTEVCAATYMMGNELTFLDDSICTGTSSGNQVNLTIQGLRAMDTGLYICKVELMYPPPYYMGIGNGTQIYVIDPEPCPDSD
Description: as §5, §6

[11] = molecular target: T1, human CTLA-4 (Example 3 ELISAs, …); experiment: competition ELISA: coated human CTLA-4, antibody mixed with biotinylated CD86, bound ligand detected with streptavidin-HRP [B) CD86]
Description: as §1
Plates were coated with human CTLA-4.ECD.hFc (0.5 μg/mL) at 4° C. for 16-20 hours. […] After washing three times with PBS containing 0.05% Tween 20, biotinylated anti-His tag antibody was 1:2000 diluted and added. The plates were incubated at room temperature for 1 hour. The bound ligands were detected by HRP conjugated streptavidin (1:20000).

[12] = molecular target: T3, biotinylated human CTLA-4 (Example 3 …); experiment: competition FACS: antibody mixed with biotinylated human CTLA-4, added to CD80-expressing cells (panel title W316-CHO-K1.hPro1.L1), bound CTLA-4 detected with streptavidin-PE [A]
Description: as §1, §2

[13] = molecular target: T7, murine CTLA-4 (Example 3 ELISA, …); experiment: ELISA, antibody titrated on mouse CTLA-4, OD450
Description: as §5, §6

B1: W3162-1.146.19 xAb.IgG1 (antibody, V domains shown)
VH: EVQLQESGPGLVKPSQSLSLTCSVTYHTITSGYDWTWIRKFPGNQMEWMGYISYSGNTNYNPSLKSRISITRDTSKNQFFLHLNSVTSEDTATYYCASMMVPHYYVMDAWGQGASVTVSS
VL: DVVLTQTPPTSSATIGQSVSISCRSSQSLLNSDGNTYLYWYLQRPSQSPQLLIYLVSKLGSGVPNRFSGSGSGTDFTLKISGVEAEDLGLYYCVQGTHDPWTFGGGTKLELK
notes: Chimeric: rat variable regions fused with constant region of human antibody (label xAb.IgG1)
IC50 (read off the curve) [1]: ~0.7 nM | EC50 [2]: 3.25 nM | IC50 (read off the curve) [3]: ~1 nM | Kd [4]: 0.208 nM | koff [4]: 0.000148 s⁻¹ | kon [4]: 709000 M⁻¹ s⁻¹ | Kd [5]: 0.906 nM | koff [5]: 0.000228 s⁻¹ | kon [5]: 251000 M⁻¹ s⁻¹ | Kd [6]: 0.369 nM | koff [6]: 0.000107 s⁻¹ | kon [6]: 291000 M⁻¹ s⁻¹ | Kd [7]: 0.208 nM | koff [7]: 0.000148 s⁻¹ | kon [7]: 709000 M⁻¹ s⁻¹ | EC50 [8]: 0.01 nM | EC50 (read off the curve) [9]: ~0.04 nM | EC50 (read off the curve) [10]: ~0.1 nM | IC50 (read off the curve) [11]: ~0.8 nM

B2: W3162-1.145.10 xAb.IgG1 (antibody, V domains shown)
VH: EVQLVESGGGLVQPGRSLKLSCAASDLTFSNYDMAWVRQTPTKGLEWVASISPNGGNTYYRDSVKGRFTVSRDNAKNSLYLQMDSLRSEDTATYYCARHLWFAYWGQGTLVTVSS
VL: DIQMTQSPSSMSASLGDRVTISCQASQDIGSNLIWFQQKPGKSPRPMIYYATHLADGVPSRFSGSRSGSDYSLTISSLESEDVADYHCLQYKQYPRTFGGGTKLELK
notes: as for B1
IC50 (read off the curve) [1]: ~0.3 nM | IC50 (read off the curve) [3]: ~0.3 nM | Kd [4]: 2.08 nM | koff [4]: 0.0165 s⁻¹ | kon [4]: 7.93e+06 M⁻¹ s⁻¹ | Kd [6]: 0.355 nM | koff [6]: 0.00377 s⁻¹ | kon [6]: 1.06e+07 M⁻¹ s⁻¹ | Kd [7]: 2.08 nM | koff [7]: 0.0165 s⁻¹ | kon [7]: 7.93e+06 M⁻¹ s⁻¹ | EC50 (read off the curve) [9]: ~0.01 nM | IC50 (read off the curve) [12]: ~1 nM | EC50 (read off the curve) [10]: ~0.1 nM | IC50 (read off the curve) [11]: ~0.4 nM | binding result [13]: no binding (tested: about 20 nM)

B3: W3162_1.145.10-z7-uAb.IgG1K (antibody, V domains shown)
VH: EVQLVESGGGLVQPGGSLRLSCAASDLTFSNYDMAWVRQAPGKGLEWVASISPSGGNTYYRDSVKGRFTISRDNAKNSLYLQMNSLRAEDTAVYYCARHLWFAYWGQGTLVTVSS
VL: DIQMTQSPSSLSASVGDRVTITCQASQDIGSNLIWFQQKPGKAPKPMIYYATHLADGVPSRFSGSRSGTDYTLTISSLQPEDFATYYCLQYKQYPRTFGGGTKVEIK
notes: Humanized; label says IgG1K; also called W145
Kd [4]: 1.84 nM | koff [4]: 0.0135 s⁻¹ | kon [4]: 7.37e+06 M⁻¹ s⁻¹ | Kd [6]: 0.598 nM | koff [6]: 0.00271 s⁻¹ | kon [6]: 4.52e+06 M⁻¹ s⁻¹

B4: W3162-1.154.8 xAb.IgG1 (antibody, V domains shown)
VH: EVQLQQSGPEAGRPGSSVKISCKASGYTFTNYFMNWVKQSPGQGLEWIGRVDPENGRADYAEKFKKKATLTADTTSNTAYIHLSSLTSEDTATYFCARRAMDNYGFAYWGQGTLVTVSS
VL: EIMLTQSPTIMAASLGEKITITCSANSSLSYMYWFQQKSGASPKLWVHGTSNLASGVPDRFSGSGSGTSYYLTINTMEAEDAATYFCHHWSNTQWTFGGGTKLELK
notes: as for B1
IC50 (read off the curve) [1]: ~0.3 nM | EC50 [2]: 1.26 nM | IC50 (read off the curve) [3]: ~0.08 nM | Kd [4]: 0.068 nM | koff [4]: 0.000125 s⁻¹ | kon [4]: 1.85e+06 M⁻¹ s⁻¹ | Kd [6]: 0.0872 nM | koff [6]: 0.000109 s⁻¹ | kon [6]: 1.25e+06 M⁻¹ s⁻¹ | Kd [7]: 0.068 nM | koff [7]: 0.000125 s⁻¹ | kon [7]: 1.85e+06 M⁻¹ s⁻¹ | EC50 (read off the curve) [9]: ~0.05 nM | EC50 (read off the curve) [10]: ~0.08 nM | IC50 (read off the curve) [11]: ~0.4 nM | binding result [13]: no binding (tested: about 20 nM)

B5: W3162-1.101.2 xAb.IgG1 (antibody, V domains shown)
VH: EEQLVESGGGLVQPGKSLKLSCSASGFTFRSSAMHWIRQPPGKGLDWVAFISSGGDTAYADAVKGRFIVSRDNAENTLFLQLNSLKSEDTAIYYCVRMERIPTWGQGVMVTVSS
VL: DIVLTQSPVLAVSLGQRATISCRASQSVSISSINLIHWYQQRPGQQPKLLIYRTSNLASGIPARFSGSGSGTDFTLSIDPVQADDVADYYCQQSRESPLTFGSGTKLEIK
notes: as for B1
IC50 (read off the curve) [3]: ~20 nM | Kd [7]: 0.1 nM | koff [7]: 6.97e-05 s⁻¹ | kon [7]: 695000 M⁻¹ s⁻¹ | EC50 (read off the curve) [9]: ~0.04 nM | EC50 (read off the curve) [10]: ~0.1 nM | IC50 (read off the curve) [11]: ~0.5 nM | binding result [13]: no binding (tested: about 20 nM)
